Measurements: US9393284B2, “Visfatin therapeutic agents for the treatment of acne and other conditions” (ARAVA BIO-TECH LTD., priority 2009, dated 2016)

Experiments:
sebaceous glands [1] = assay: Maturation and sebum accumulation of sebaceous glands in newborn BalbC mice treated with visfatin (Oil Red O, H&E); format: in vivo, Mus musculus
Experimental: Preparation of Frozen Skin Sections: Skin biopsies were embedded in optimum cutting temperature compound (OCT) and immediately sectioned by cryostat-microtome and mounted on slides.
(§1) Hematoxylin & Eosin Staining: Paraffin embedded skin biopsy section slides were incubated at 60° C. for 60 minutes and deparaffinized by washing the slides twice with toluene (100%) for 10 minutes and rehydrating the skin biopsy section slides in decreasing concentration of ethanol (100-50%) for 5 minutes each. The slides then were stained with a ready to use solution of hematoxylin for 5 minutes, rinsed with water, stained with eosin (0.5% in double distilled water) for 1.5 minutes and washed twice by rapid immersion in 70% ethanol. Thereafter, the slides were dehydrated by washing once with 95% ethanol for 5 minutes, twice with 100% ethanol for 5 minutes and twice with xylene (100%) for 10 minutes. This was followed by the application of ENTELLAN™ (Merck KGaA, Darmstadt, Germany) and the mounting of coverslips.
Oil Red O Staining: Frozen skin biopsy section slides were fixed in 1% neutral-buffered formalin for 5 minutes, washed in deionized water, and incubated in 60% isopropanol for 5 minutes. […]

sebaceous glands [2] = assay: Number of sebocytes in sebaceous glands of adult BalbC mice after topical or intradermal visfatin (H&E staining); format: in vivo, Mus musculus; details: 0.01 μg/ml, 200 μL once daily for 4 days
Experimental: Preparation of Paraffin Embedded Skin Sections: Skin biopsies were performed on study mice. Skin biopsy samples were fixed in 4% paraformaldehyde then dehydrated with increasing concentrations of ethanol (50-100%). Dehydrated biopsy samples were immersed twice in xylene, then once in a 1:1 solution of paraffin and xylene and finally three times in pure melted paraffin at a temperature of 60° C. Paraffin blocks were then sectioned with a microtome and the resulting sections were mounted on slides.
as §1, with “Thereafter, the slides were dehydrated by washing once with 95% ethanol for 5 minutes, twice with 100% ethanol for 5 minutes and twice with xylene (100%) for 10 minutes. This was followed by the application of ENTELLAN™ (Merck KGaA, Darmstadt, Germany) and the mounting of coverslips.” left out
Skin samples were fixed in 4% paraformaldehyde and paraffin embedded. The number of cells with the bubbled shaped morphology characteristic of sebocytes were then counted and calculated as a percentage of the number of total cells in each sebaceous gland by microscopic examination at a magnification of 40× using a Nikon Eclipse 50i microscope. […]

B1: visfatin: recombinant Mus musculus visfatin (Enzo Life Sciences), in PBS, topical or intradermal solution (protein, UniProt Q99KQ4 1-491, looked up)
Nicotinamide …: MNAAAEAEFNILLATDSYKVTHYKQYPPNTSKVYSYFECREKKTENSKVRKVKYEETVFYGLQYILNKYLKGKVVTKEKIQEAKEVYREHFQDDVFNERGWNYILEKYDGHLPIEVKAVPEGSVIPRGNVLFTVENTDPECYWLTNWIETILVQSWYPITVATNSREQKKILAKYLLETSGNLDGLEYKLHDFGYRGVSSQETAGIGASAHLVNFKGTDTVAGIALIKKYYGTKDPVPGYSVPAAEHSTITAWGKDHEKDAFEHIVTQFSSVPVSVVSDSYDIYNACEKIWGEDLRHLIVSRSTEAPLIIRPDSGNPLDTVLKVLDILGKKFPVTENSKGYKLLPPYLRVIQGDGVDINTLQEIVEGMKQKKWSIENVSFGSGGALLQKLTRDLLNCSFKCSYVVTNGLGVNVFKDPVADPNKRSKKGRLSLHRTPAGNFVTLEEGKGDLEEYGHDLLHTVFKNGKVTKSYSFDEVRKNAQLNIEQDVAPH
B1 was tested, and the “sebum in sebaceous glands based on Oil Red O staining” value (sebaceous glands [1]; topical visfatin 0.01 μg/ml 100 μL once daily, day 3 after birth) was “do contain sebum”, the “maturation of sebaceous glands (H&E staining)” value (sebaceous glands [1]; topical visfatin, day 4 after birth) was “induces the maturation of sebaceous glands” and the “number of sebocytes present inside the sebaceous glands relative to control mice” value (sebaceous glands [2]; intradermal) was “increased”. For the same molecule, the “number of sebocytes present inside the sebaceous glands relative to control mice” value (sebaceous glands [2]; topical) was “increased”.
